Measured values: patent US20230357427A1 (SHANGHAI IMMUNOHEAD BIOTECHNOLOGY, published 2023)

B1: mHmL (antibody, V domains shown)
VH: QVKLQQSGAELVRPGASVKLSCKASGYTFTNYWINWVKQRPGQGLEWIGNIYPSYIYTNYNQEFKDKVTLTVDESSSTAYMQLSSPTSEDSAVYYCTRSPYGYDEYGLDYWGQGTTVTVSS
VL: DIELTQSPSSLTVTAGEKVTMNCKSSQSLLNSRNQKNYLTWYQQKPGQPPKLLIYWASTRESGVPDRFTGSGSGTDFTLTISSVQAEDLAVYYCQNDYVYPLTFGAGTKLEIK
notes: it was captured on Protein A; also called original antibody mHmL; EpCAM antibody
B2: H2L1 (antibody, V domains shown)
VH: QVQLVQSGAEVKKPGASVKVSCKASGYTFTNYWINWVRQAPGQGLEWIGNIYPSYIYTNYNQEFKDKVTLTVDESTSTAYMELSSLRSEDTAVYYCTRSPYGYDEYGLDYWGQGTTVTVSS
VL: DIQLTQSPSSLSASVGDRVTMTCKSSQSLLNSRNQKNYLTWYQQKPGKAPKLLIYWASTRESGVPSRFSGSGSGTDFTLTISSVQPEDFATYYCQNDYVYPLTFGQGTKLEIK
notes: Recombinant antibody from ExpiCHO-s; the limits were counted from the printed signal peptide, linker and hinge
B3: H1L1 (antibody, V domains shown)
VH: QVQLVQSGAEVKKPGASVKLSCKASGYTFTNYWINWVKQAPGQGLEWIGNIYPSYIYTNYNQEFKDKVTLTVDESTSTAYMELSSLRSEDTAVYYCTRSPYGYDEYGLDYWGQGTTVTVSS
VL: DIQLTQSPSSLSASVGDRVTMTCKSSQSLLNSRNQKNYLTWYQQKPGKAPKLLIYWASTRESGVPSRFSGSGSGTDFTLTISSVQPEDFATYYCQNDYVYPLTFGQGTKLEIK
notes: Recombinant antibody from ExpiCHO-s; These limits were counted from the printed signal peptide, linker and hinge
B4: H2L2 (antibody, V domains shown)
VH: QVQLVQSGAEVKKPGASVKVSCKASGYTFTNYWINWVRQAPGQGLEWIGNIYPSYIYTNYNQEFKDKVTLTVDESTSTAYMELSSLRSEDTAVYYCTRSPYGYDEYGLDYWGQGTTVTVSS
VL: DIQLTQSPSSLSASVGDRVTMTCKSSQSLLNTRNQKNYLTWYQQKPGKAPKLLIYWASTRESGVPSRFSGSGSGTDFTLTISSLQPEDFATYYCQNDYVYPLTFGQGTKLEIK
notes: as for B2
B5: H3L1 (antibody, V domains shown)
VH: QVQLVQSGAEVKKPGASVKVSCKASGYTFTNYWINWVRQAPGQGLEWIGNIYPSYIYTNYNQEFKDRVTLTRDTSISTAYMELSRLRSDDTAVYYCTRSPYGYDEYGLDYWGQGTTVTVSS
VL: DIQLTQSPSSLSASVGDRVTMTCKSSQSLLNSRNQKNYLTWYQQKPGKAPKLLIYWASTRESGVPSRFSGSGSGTDFTLTISSVQPEDFATYYCQNDYVYPLTFGQGTKLEIK
notes: as for B2
B6: H3L2 (antibody, V domains shown)
VH: QVQLVQSGAEVKKPGASVKVSCKASGYTFTNYWINWVRQAPGQGLEWIGNIYPSYIYTNYNQEFKDRVTLTRDTSISTAYMELSRLRSDDTAVYYCTRSPYGYDEYGLDYWGQGTTVTVSS
VL: DIQLTQSPSSLSASVGDRVTMTCKSSQSLLNTRNQKNYLTWYQQKPGKAPKLLIYWASTRESGVPSRFSGSGSGTDFTLTISSLQPEDFATYYCQNDYVYPLTFGQGTKLEIK
notes: as for B2
B7: H4L1 (antibody, V domains shown)
VH: QVQLVQSGAEVKKPGASVKVSCKASGYTFTNYWINWVRQAPGQGLEWIGNIYPSYIYTNYAQKFQGRVTLTRDTSTSTVYMELSSLRSEDTAVYYCTRSPYGYDEYGLDYWGQGTTVTVSS
VL: DIQLTQSPSSLSASVGDRVTMTCKSSQSLLNSRNQKNYLTWYQQKPGKAPKLLIYWASTRESGVPSRFSGSGSGTDFTLTISSVQPEDFATYYCQNDYVYPLTFGQGTKLEIK
notes: as for B2
B8: H5L1 (antibody, V domains shown)
VH: QVQLVQSGAEVKKPGASVKVSCKASGYTFTNYWINWVRQAPGQGLEWIGNIYPSYIYTNYNQEFKDRVTMTRDTSISTAYMELSRLRSDDTAVYYCTRSPYGYDEYGLDYWGQGTTVTVSS
VL: DIQLTQSPSSLSASVGDRVTMTCKSSQSLLNSRNQKNYLTWYQQKPGKAPKLLIYWASTRESGVPSRFSGSGSGTDFTLTISSVQPEDFATYYCQNDYVYPLTFGQGTKLEIK
notes: as for B2
B9: H2L3 (antibody, V domains shown)
VH: QVQLVQSGAEVKKPGASVKVSCKASGYTFTNYWINWVRQAPGQGLEWIGNIYPSYIYTNYNQEFKDKVTLTVDESTSTAYMELSSLRSEDTAVYYCTRSPYGYDEYGLDYWGQGTTVTVSS
VL: DIVLTQSPDSLAVSLGERATMNCKSSQSLLNSRNQKNYLTWYQQKPGQPPKLLIYWASTRESGVPDRFSGSGSGTDFTLTISSLQAEDVAVYYCQNDYVYPLTFGQGTKLEIK
notes: as for B2
B10: H1L3 (antibody, V domains shown)
VH: QVQLVQSGAEVKKPGASVKLSCKASGYTFTNYWINWVKQAPGQGLEWIGNIYPSYIYTNYNQEFKDKVTLTVDESTSTAYMELSSLRSEDTAVYYCTRSPYGYDEYGLDYWGQGTTVTVSS
VL: DIVLTQSPDSLAVSLGERATMNCKSSQSLLNSRNQKNYLTWYQQKPGQPPKLLIYWASTRESGVPDRFSGSGSGTDFTLTISSLQAEDVAVYYCQNDYVYPLTFGQGTKLEIK
notes: as for B2
B11: H3L3 (antibody, V domains shown)
VH: QVQLVQSGAEVKKPGASVKVSCKASGYTFTNYWINWVRQAPGQGLEWIGNIYPSYIYTNYNQEFKDRVTLTRDTSISTAYMELSRLRSDDTAVYYCTRSPYGYDEYGLDYWGQGTTVTVSS
VL: DIVLTQSPDSLAVSLGERATMNCKSSQSLLNSRNQKNYLTWYQQKPGQPPKLLIYWASTRESGVPDRFSGSGSGTDFTLTISSLQAEDVAVYYCQNDYVYPLTFGQGTKLEIK
notes: as for B2
B12: H2L4 (antibody, V domains shown)
VH: QVQLVQSGAEVKKPGASVKVSCKASGYTFTNYWINWVRQAPGQGLEWIGNIYPSYIYTNYNQEFKDKVTLTVDESTSTAYMELSSLRSEDTAVYYCTRSPYGYDEYGLDYWGQGTTVTVSS
VL: EIVLTQSPATLSLSPGERATMSCKSSQSLLNSRNQKNYLTWYQQKPGQAPRLLIYWASTRESGIPARFSGSGSGTDFTLTISSLEPEDFAVYYCQNDYVYPLTFGQGTKLEIK
notes: as for B2
B13: H1L4 (antibody, V domains shown)
VH: QVQLVQSGAEVKKPGASVKLSCKASGYTFTNYWINWVKQAPGQGLEWIGNIYPSYIYTNYNQEFKDKVTLTVDESTSTAYMELSSLRSEDTAVYYCTRSPYGYDEYGLDYWGQGTTVTVSS
VL: EIVLTQSPATLSLSPGERATMSCKSSQSLLNSRNQKNYLTWYQQKPGQAPRLLIYWASTRESGIPARFSGSGSGTDFTLTISSLEPEDFAVYYCQNDYVYPLTFGQGTKLEIK
notes: as for B2

Legend:
[1] = biological target: T1, EpCAM on human tumor cells (SW480, HCT116, HCT116-Luc, KATO-III, A549) (human, UniProt P16422 24-314); test: flow cytometry on HCT116 cells
T1 construct: whole, on cells; also called epithelial cell adhesion molecule
T1 sequence (looked up): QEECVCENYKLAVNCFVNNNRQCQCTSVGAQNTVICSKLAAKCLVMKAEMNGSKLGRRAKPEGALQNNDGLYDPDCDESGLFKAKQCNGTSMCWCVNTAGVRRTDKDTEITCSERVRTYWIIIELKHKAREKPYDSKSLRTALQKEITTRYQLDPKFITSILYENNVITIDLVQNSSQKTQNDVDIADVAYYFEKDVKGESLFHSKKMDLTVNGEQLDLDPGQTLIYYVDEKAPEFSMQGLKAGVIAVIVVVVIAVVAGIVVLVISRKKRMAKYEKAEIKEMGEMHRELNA
Source text: (§1) The EC50 values of each recombinant antibody on SW480 and HCT116 are shown in Table 3, which are derived from FIGS. 1-4.

[2] = biological target: T1, EpCAM on human tumor cells (SW480, …); test: flow cytometry on SW480 cells
Source text: as §1

| Binder | EC50 [1] [mg/L] | EC50 [2] [mg/L] |
| --- | --- | --- |
| B1 | 0.468 | 0.581 |
| B2 | 0.583 | 0.599 |
| B3 | 0.503 | 0.567 |
| B4 | 0.537 | 0.595 |
| B5 | 0.478 | 0.564 |
| B6 | 0.472 | 0.569 |
| B7 | 0.474 | 0.568 |
| B8 | 0.426 | 0.449 |
| B9 | 0.584 | 0.653 |
| B10 | 0.563 | 0.631 |
| B11 | 0.492 | 0.542 |
| B12 | 0.584 | 0.655 |
| B13 | 0.602 | 0.675 |
